Reference: the supplement of paper PMC9112550, “Optimization of the antimicrobial peptide Bac7 by deep mutational scanning” (BMC Biology, 2022)

What follows are sequences tested on Escherichia coli TOP10 (assay: shrunken log2 fold change of peptide-encoding DNA abundance (4.5 h post-induction vs induction); higher = less antimicrobial activity (less host growth inhibition)). Conditions: time post-induction: 4.5 h; library: site-saturation at positions 5, 18, 19, 20.
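Note: peptides expressed intracellularly from a pBAD plasmid library in pooled LB shake-flask culture, induced with 0.3% L-arabinose, DNA abundance read by NGS, three biological replicates, DESeq2 with apeglm shrinkage.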

| Sequence | shrunken log2 fold change |
| --- | --- |
| RRIRPRPPRLPRPRPRPSFHPRP | 0.626 |
| RRIRSRPPRLPRPRPRPFKSPRP | 0.0547 |
| RRIRWRPPRLPRPRPRPVPYPRP | -0.638 |
| RRIRDRPPRLPRPRPRPFQSPRP | 0.0407 |
| RRIRHRPPRLPRPRPRPMIHPRP | -0.382 |
| RRIRIRPPRLPRPRPRPCRGPRP | 0.0305 |
| RRIRKRPPRLPRPRPRPFTEPRP | 0.0246 |
| RRIRARPPRLPRPRPRPPYVPRP | -0.131 |
| RRIRERPPRLPRPRPRPDKYPRP | -0.449 |
| RRIRKRPPRLPRPRPRPKAIPRP | 0.0275 |
| RRIRNRPPRLPRPRPRPNTGPRP | 0.0312 |
| RRIRSRPPRLPRPRPRPRYLPRP | -0.329 |
| RRIRPRPPRLPRPRPRPYNWPRP | -0.731 |
| RRIRWRPPRLPRPRPRPHCFPRP | -0.0202 |
| RRIRDRPPRLPRPRPRPVAPPRP | 0.445 |
| RRIRNRPPRLPRPRPRPDQWPRP | 0.0039 |
| RRIRNRPPRLPRPRPRPNGQPRP | -0.0686 |
| RRIRVRPPRLPRPRPRPGYIPRP | -0.608 |
| RRIRGRPPRLPRPRPRPDTKPRP | 0.239 |
| RRIRCRPPRLPRPRPRPRMYPRP | -0.562 |
| RRIRQRPPRLPRPRPRPSYSPRP | -0.298 |
| RRIRQRPPRLPRPRPRPWWDPRP | 0.00367 |
| RRIRGRPPRLPRPRPRPTQLPRP | 1.02 |
| RRIRARPPRLPRPRPRPRVLPRP | 0.189 |
| RRIRLRPPRLPRPRPRPQWCPRP | -0.282 |

| Sequence | shrunken log2 fold change |
| --- | --- |
| RRIRIRPPRLPRPRPRPPVTPRP | -0.287 |
| RRIRTRPPRLPRPRPRPRRVPRP | 0.329 |
| RRIRPRPPRLPRPRPRPKNVPRP | -0.169 |
| RRIRMRPPRLPRPRPRPENSPRP | 2.07 |
| RRIRARPPRLPRPRPRPQVKPRP | 0.136 |
| RRIRDRPPRLPRPRPRPIHLPRP | -0.0597 |
| RRIRERPPRLPRPRPRPLFRPRP | 1.09 |
| RRIRRRPPRLPRPRPRPMAVPRP | -0.165 |
| RRIRHRPPRLPRPRPRPPNPPRP | 0.238 |
| RRIRERPPRLPRPRPRPFVIPRP | -0.478 |
| RRIRTRPPRLPRPRPRPFMEPRP | -0.228 |
| RRIRKRPPRLPRPRPRPMNRPRP | -0.029 |
| RRIRARPPRLPRPRPRPCVAPRP | 0.715 |
| RRIRARPPRLPRPRPRPRGWPRP | 1.07 |
| RRIRPRPPRLPRPRPRPILWPRP | 0.0824 |
| RRIRYRPPRLPRPRPRPHMQPRP | -1.07 |
| RRIRMRPPRLPRPRPRPPCHPRP | 0.186 |
| RRIRLRPPRLPRPRPRPEHKPRP | -0.0822 |
| RRIRVRPPRLPRPRPRPAMTPRP | 0.0589 |
| RRIRSRPPRLPRPRPRPGSQPRP | -0.492 |
| RRIRGRPPRLPRPRPRPPPNPRP | 1.27 |
| RRIRNRPPRLPRPRPRPYRRPRP | -0.281 |
| RRIRKRPPRLPRPRPRPHCQPRP | 0.101 |
| RRIRFRPPRLPRPRPRPNTKPRP | -0.323 |
| RRIRNRPPRLPRPRPRPTTFPRP | -0.337 |

| Sequence | shrunken log2 fold change |
| --- | --- |
| RRIRQRPPRLPRPRPRPDKRPRP | 0.00102 |
| RRIRRRPPRLPRPRPRPCKVPRP | -0.0103 |
| RRIRNRPPRLPRPRPRPMSMPRP | -0.0143 |
| RRIRARPPRLPRPRPRPYPLPRP | -0.127 |
| RRIRKRPPRLPRPRPRPYALPRP | -0.119 |
| RRIRARPPRLPRPRPRPFFDPRP | 0.107 |
| RRIRPRPPRLPRPRPRPWDFPRP | 0.122 |
| RRIRDRPPRLPRPRPRPPQCPRP | 0.243 |
| RRIRARPPRLPRPRPRPYRDPRP | -0.761 |
| RRIRARPPRLPRPRPRPNLTPRP | 0.287 |
| RRIRNRPPRLPRPRPRPRSSPRP | -0.145 |
| RRIRPRPPRLPRPRPRPTRPPRP | 0.782 |
| RRIRDRPPRLPRPRPRPKRHPRP | 0.214 |
| RRIRIRPPRLPRPRPRPVIRPRP | 0.00816 |
| RRIRLRPPRLPRPRPRPKWCPRP | 0.0847 |
| RRIRCRPPRLPRPRPRPRHQPRP | 0.18 |
| RRIRKRPPRLPRPRPRPANHPRP | -0.235 |
| RRIRKRPPRLPRPRPRPGLVPRP | 0.783 |
| RRIRQRPPRLPRPRPRPHYFPRP | -0.239 |
| RRIRNRPPRLPRPRPRPEESPRP | 0.013 |
| RRIRMRPPRLPRPRPRPRTKPRP | 1.21 |
| RRIRPRPPRLPRPRPRPPGEPRP | 0.00468 |
| RRIRTRPPRLPRPRPRPGERPRP | 0.113 |
| RRIRGRPPRLPRPRPRPGCKPRP | 0.441 |
| RRIRFRPPRLPRPRPRPMLDPRP | -0.365 |

| Sequence | shrunken log2 fold change |
| --- | --- |
| RRIRGRPPRLPRPRPRPMAHPRP | 0.63 |
| RRIRRRPPRLPRPRPRPFICPRP | -0.0336 |
| RRIRCRPPRLPRPRPRPERPPRP | 0.777 |
| RRIRQRPPRLPRPRPRPRGFPRP | 0.0677 |
| RRIRARPPRLPRPRPRPESGPRP | 0.793 |
| RRIRYRPPRLPRPRPRPYEPPRP | -0.248 |
| RRIRLRPPRLPRPRPRPRMMPRP | 0.189 |
| RRIRSRPPRLPRPRPRPHMRPRP | -0.0431 |
| RRIRLRPPRLPRPRPRPKAIPRP | 0.0195 |
| RRIRTRPPRLPRPRPRPALTPRP | 0.251 |
| RRIRKRPPRLPRPRPRPCIMPRP | 1.3 |
| RRIRFRPPRLPRPRPRPETEPRP | -0.0257 |
| RRIRWRPPRLPRPRPRPFDWPRP | 0.344 |
| RRIRDRPPRLPRPRPRPNFDPRP | -0.0173 |
| RRIRPRPPRLPRPRPRPAQDPRP | 0.0233 |
| RRIRFRPPRLPRPRPRPLQLPRP | -0.51 |
| RRIRERPPRLPRPRPRPVTPPRP | 0.0669 |
| RRIRFRPPRLPRPRPRPKICPRP | -0.0416 |
| RRIRIRPPRLPRPRPRPKQAPRP | 0.0872 |
| RRIRKRPPRLPRPRPRPSPLPRP | 0.446 |
| RRIRWRPPRLPRPRPRPDHNPRP | -0.302 |
| RRIRWRPPRLPRPRPRPSMWPRP | 0.111 |
| RRIRDRPPRLPRPRPRPVGWPRP | 0.945 |
| RRIRSRPPRLPRPRPRPQYAPRP | -0.282 |
| RRIRIRPPRLPRPRPRPVVRPRP | 0.11 |

| Sequence | shrunken log2 fold change |
| --- | --- |
| RRIRGRPPRLPRPRPRPVPKPRP | 0.92 |
| RRIRYRPPRLPRPRPRPKWGPRP | -0.297 |
| RRIRIRPPRLPRPRPRPGKSPRP | -0.0715 |
| RRIRDRPPRLPRPRPRPCHYPRP | -0.639 |
| RRIRARPPRLPRPRPRPEQKPRP | 1.29 |
| RRIRKRPPRLPRPRPRPQHWPRP | 0.474 |
| RRIRFRPPRLPRPRPRPKCVPRP | -0.184 |
| RRIRHRPPRLPRPRPRPYAKPRP | -0.0134 |
| RRIRYRPPRLPRPRPRPDHYPRP | -0.0219 |
| RRIRQRPPRLPRPRPRPVNWPRP | 0.472 |
| RRIRTRPPRLPRPRPRPPGGPRP | 0.637 |
| RRIRQRPPRLPRPRPRPIKSPRP | -0.117 |
| RRIRNRPPRLPRPRPRPDVNPRP | -0.00804 |
| RRIRQRPPRLPRPRPRPHPKPRP | -0.0646 |
| RRIRVRPPRLPRPRPRPDPSPRP | 0.226 |
| RRIRWRPPRLPRPRPRPCCFPRP | -0.0922 |
| RRIRFRPPRLPRPRPRPCIQPRP | -0.0483 |
| RRIRGRPPRLPRPRPRPLSAPRP | 0.507 |
| RRIRVRPPRLPRPRPRPCSLPRP | -0.201 |
| RRIRRRPPRLPRPRPRPQMAPRP | 0.455 |
| RRIRVRPPRLPRPRPRPVHYPRP | -0.0353 |
| RRIRRRPPRLPRPRPRPMQGPRP | 0.031 |
| RRIRDRPPRLPRPRPRPMSWPRP | 0.262 |
| RRIRRRPPRLPRPRPRPVWNPRP | 0.0425 |
| RRIRCRPPRLPRPRPRPVHGPRP | 0.267 |
